Results published in PMC10803253, “Structural insights into the iron nitrogenase complex” (Nature Structural & Molecular Biology, 2023).
One block for each binder: values may come before it.

B3: Fe nitrogenase reductase component AnfH2 (Rhodobacter capsulatus) (enzyme, UniProt Q07942 1-275, looked up)
chain: MTRKIAIYGKGGIGKSTTTQNTAAALAFFHEKNVFIHGCDPKADSTRLILGGLPQQTVMDTLRIEGAERVTVDKVVKTGFKDIRCVESGGPEPGVGCAGRGVITAIDLMEENEAYSEDLDFLFFDVLGDVVCGGFAMPIRDGKAEEVYIVASGEMMAIYAANNICKGLAKYARQSGVRLGGIICNSRNVDGEKEFLEEFTKAIGTKMIHFVPRDNIVQKAEFNKQTVTEFQPEANQAQEYRELGRKIIENEDFVIPKPLAMDELEAMVVKYGLMD
notes: AnfH, nitrogenase iron protein of the Fe-only nitrogenase, Rhodobacter capsulatus B10S; the anfHDGK operon was amplified whole from genomic DNA; Homodimer with one [Fe4S4] cluster between the two chains; in the trapped complex one MgADP·AlF3 per chain; His6-tag inserted without any linker; no cleavage step is described; also called H subunit

How the values were obtained:
[1] = molecular target: T1, AnfD, D subunit of the Fe nitrogenase catalytic component (Rhodobacter capsulatus) (Rhodobacter capsulatus, UniProt Q07933 1-526); experiment: cryo-EM structure; catalytic component Anf(DGK)2 alone with CHAPSO (0.4% m/V) added on the grid right before plunge freezing; 2.49 Å, C2 symmetry; settings: both partners purified
T1 construct: AnfD, alpha (D) subunit of the Fe-only nitrogenase, Rhodobacter capsulatus B10S; the anfHDGK operon was amplified whole from genomic DNA; Single subunit, written for the subunit-to-subunit rows of the complexes solved here

[2] = molecular target: B3; experiment: cryo-EM structure; ADP·AlF3-stabilized Anf(DGK)2(H2)2 complex after SEC, 1 mg/ml, anaerobic plunge freezing, no detergent; 2.35 Å, C2 symmetry; settings: both partners purified
[3] = molecular target: T1, AnfD, D subunit of the Fe nitrogenase …; experiment: mass photometry; individual nitrogenase components; 500 nM stock diluted 0.5 µl into 19.5 µl of 150 mM NaCl, 50 mM Tris pH 7.8, 10% glycerol, 10 mM dithionite; settings: both partners purified
[4] = molecular target: the molecule itself; experiment: as above
[5] = molecular target: T2, Fe nitrogenase catalytic component Anf(DGK)2 (Rhodobacter capsulatus) (Rhodobacter capsulatus, UniProt Q07933 1-526; Q07934 1-115; Q07935 1-460); experiment: SEC; 4 nmol catalytic and 32 nmol reductase component, 1 h at 30 °C in 100 mM MOPS, 50 mM Tris, 100 mM NaCl pH 7.3, 5 mM dithionite, 4 mM NaF, 0.2 mM AlCl3, 8 mM MgCl2, 1 mM ATP (ADP·AlF3 trap); SEC in 50 mM Tris pH 7.8, 200 mM NaCl, 5 mM dithionite; anaerobic; settings: both partners purified
T2 construct: AnfD, alpha (D) subunit of the Fe-only nitrogenase, Rhodobacter capsulatus B10S; the anfHDGK operon was amplified whole from genomic DNA; AnfG, delta (G) subunit of the Fe-only nitrogenase, Rhodobacter capsulatus B10S; AnfK, beta (K) subunit of the Fe-only nitrogenase, Rhodobacter capsulatus B10S; Heterohexamer with two P-clusters [Fe8S7] and two FeFeco [Fe8S9C-(R)-homocitrate]; Strep-tag II …

- binding result [1]: binds
B1: AnfK, K subunit of the Fe nitrogenase catalytic component (Rhodobacter capsulatus) (natural protein, UniProt Q07935 1-460, looked up)
chain: MTCQVTQKAREGTINPIFTCQPAGAQFASIGIKDCIGIVHGGQGCVMFVRLLISQHMKESFEIASSSVHEDGAVFGALDRVETAVEVLLTRYPDVKVVPIITTCSTEIIGDDVDGLLSKLEDELLPTKFPGREVHLLTVHCPSFVGSMITGYDKAVHDFVKKFATKDEPSDKINLITGWVNPGDVKELKHLLEVMEVKANVLFEVESFDSPLMPDLEHHSHGSTTIEDLRDTANAKGTIALNRYEGMKAADYLKKKFKVPAVIGPTPVGIRNTDAFLKAVSEMTGQPIPAQLVKERGLALDAIADIGHMFLADKRVAIYANPDLAIGLTEFCLDLEMKPKLLLLGDDNSGYVKDPRVVALQENAPDLEIVTNADFWDLESRIQQGLELDLILGHSKGRFISIDYKVPMVRVGFPTYDRAGMYRHPVLGYGGAMFLAETMANTLFADMEAKKNKEWILNVW
notes: AnfK, beta (K) subunit of the Fe-only nitrogenase, Rhodobacter capsulatus B10S; the anfHDGK operon was amplified whole from genomic DNA; Single subunit, written for the subunit-to-subunit rows of the complexes solved here

- binding result [2]: binds
- binding result [3]: binds
B2: AnfG, G subunit of the Fe nitrogenase catalytic component (Rhodobacter capsulatus) (natural protein, UniProt Q07934 1-115, looked up)
chain: MTDISEKLDPLVDYIMKNCLWQFNSRGWDRLKQNAGILSQTCEILCGEEPVHETAMDRCYWVDAVILSRAYKARFPWLMAMTKPEIKSLFKALHEKIDHLTVHGSLNTELTVPHY
notes: AnfG, delta (G) subunit of the Fe-only nitrogenase, Rhodobacter capsulatus B10S; the anfHDGK operon was amplified whole from genomic DNA; Single subunit, written for the subunit-to-subunit rows of the complexes solved here

Binder: B3
- stoichiometry N [4]: 2 subunits in the oligomer
- stoichiometry N [5]: 2 AnfH2 per Anf(DGK)2
